This is an account of results in patent US20120164110A1, “DIFFERENTIALLY METHYLATED REGIONS OF REPROGRAMMED INDUCED PLURIPOTENT STEM CELLS, METHOD AND COMPOSITIONS THEREOF” (priority 2009, published 2012).

For assay [1], the system named is intermediate or partial states of reprogramming. The settings on record: cited from earlier work.
The next assay concerns NSC-NP-iPSC. In words: methylcellulose hematopoietic colony forming assay of EB-differentiated cells. The assay is classed as cell-based, mouse. The settings on record: Wnt3a 40 ng/ml in EB culture media between day 2 and 4, versus non-treated EBs. As for the experimental part: (§1) Differentiation of iPSC to hematopoietic and osteogenic lineages was performed as follows. Hematopoietic colony forming activity of d6 EBs differentiated from pluripotent stem cells was measured in methylcellulose medium with IL3, IL6, Epo, and SCF (M3434, StemCell Tech.) as described in Kyba et al. (Cell (109)29-37 (2002)). Hematopoietic colony type was determined on day 10. Colony identity was confirmed by leukostain analysis of cytospin preparation of the methylcellulose colonies. Osteogenic differentiation was performed by culturing pluripotent stem cells in 15 μl hanging drops (800 cells/drop) in ES differentiation media^16. Embryoid bodies (EB) from hanging drops were collected at 2 days, transferred to a 10 cm dish of non-tissue culture grade plastic with 10^−6 M of retinoic acid, and cultured for 3 days on the shaker (50 rpm) in an incubator. EBs were equally distributed among 3 wells of a 6-well tissue culture dish, and cultured in aMEM media supplemented with 10% FBS, 1× penicillin/streptomycin/glutamine (Invitrogen), 2 nM triiodothyronine, 1× insulin/transferrin/[…] (Gibco, #51300-044). The media were changed every other day. On day 11, one well of each sample was used to measure calcium concentration, osteogenic gene expression (RNA isolation), and for Alizarin Red staining. For Alizarin Red staining, cells were washed with PBS and fixed with 4% paraformaldehyde for 5 minutes at 20 C. Fixed cells were incubated for 15 minutes in Alizarin Red staining solution (Alizarin Red (Sigma, A5533) 2% in H2O, pH 4-4.3 adjusted with NH4OH, filtered with 0.45 uM membrane), and washed with Tris-HC1, pH4.0. Elemental calcium concentrations were measured by inductively coupled plasma—atomic emission spectroscopy (ICP-AES, HORIBA Jobin Yvon Activa-M) as described in Nomlru et al. (Anal. Chem. (66)3000-3004 (1994)) at the Center for Materials Science and Engineering at MIT, and three measurements were conducted to obtain mean and standard deviation values. […]

A further assay relates to NP-iPSC. Described as above. The settings on record: Wnt3a 40 ng/ml in EB culture media between day 2 and 4, versus non-treated EBs. The assay is classed as cell-based, mouse. Here is the method: as §1
In another assay the test system is B-NP-iPSC. The assay is described as above. The assay is classed as cell-based, mouse. The settings on record: Wnt3a 40 ng/ml in EB culture media between day 2 and 4, versus non-treated EBs. As for the experimental part: as §1

“Also recorded” adds a separate entry of the source.

For the molecule `Nc1ncn([C@@H]2O[C@H](CO)[C@@H](O)[C@H]2O)c(=O)n1` [5-AZA, 5-azacytidine], the “effect on intermediate states of reprogramming” value in assay [1] was “can convert intermediate states to full pluripotency”.

B1: Wnt3a: exogenous Wnt3a cytokine (R&D System, 1324-WN-002/CF) (protein, UniProt P56704 19-352, looked up)
Protein Wnt-3a: SYPIWWSLAVGPQYSSLGSQPILCASIPGLVPKQLRFCRNYVEIMPSVAEGIKIGIQECQHQFRGRRWNCTTVHDSLAIFGPVLDKATRESAFVHAIASAGVAFAVTRSCAEGTAAICGCSSRHQGSPGKGWKWGGCSEDIEFGGMVSREFADARENRPDARSAMNRHNNEAGRQAIASHMHLKCKCHGLSGSCEVKTCWWSQPDFRAIGDFLKDKYDSASEMVVEKHRESRGWVETLRPRYTYFKVPTERDLVYYEASPNFCEPNPETGSFGTRDRTCNVSSHGIDGCDLLCCGRGHNARAERRREKCRCVFHWCCYVSCQECTRVYDVHTCK
For B1, the blood-forming potential entry with NSC-NP-iPSC is reported as “restored”; with NP-iPSC it was “restored; also recorded: enhanced”. Moreover, in the assay on B-NP-iPSC, the hematopoietic potential result is recorded as “little effect”.
